Among the targets are FcγRIIa (CD32a) (human) (UniProt P12318); FcγRIIIa (CD16a) (human) (UniProt P08637); FcγRI (CD64) (human) (UniProt P12314); FcRn (human) (UniProt P55899).
In assay [1] the target is FcγRIIb/c (CD32b/c) (human) (UniProt P31994).
The target in assay [2] is parvovirus antigen (target of Parvovirus-Ab). As to the kind of experiment: specific antibody content of the polyclonal IgG preparation; assay not described.
Assay [3] deals with diphtheria toxin (target of Diphteria antitoxin) (UniProt P00588). The assay is described as above.

The values below come from patent publication US20220062405A1.

Chain of UniProt P00588 (P00588 33-567 limits assumed): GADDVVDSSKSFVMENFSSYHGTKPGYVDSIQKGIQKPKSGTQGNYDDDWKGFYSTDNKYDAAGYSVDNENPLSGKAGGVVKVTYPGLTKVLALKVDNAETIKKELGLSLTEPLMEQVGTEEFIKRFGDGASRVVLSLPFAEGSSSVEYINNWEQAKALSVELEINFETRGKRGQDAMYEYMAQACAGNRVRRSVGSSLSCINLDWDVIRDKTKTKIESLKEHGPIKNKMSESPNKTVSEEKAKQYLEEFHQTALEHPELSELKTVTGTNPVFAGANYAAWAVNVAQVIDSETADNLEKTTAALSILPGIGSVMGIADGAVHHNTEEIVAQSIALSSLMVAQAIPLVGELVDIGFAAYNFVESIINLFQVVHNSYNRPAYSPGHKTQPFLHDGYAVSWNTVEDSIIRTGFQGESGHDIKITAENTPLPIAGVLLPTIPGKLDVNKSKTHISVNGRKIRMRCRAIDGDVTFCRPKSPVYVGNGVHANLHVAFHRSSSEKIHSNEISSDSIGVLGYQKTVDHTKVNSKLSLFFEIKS

For IgG (Hizentra) (antibody), the Kd in the assay with FcγRIIa (CD32a) (human) was found to be 213 nM; in the assay with FcγRIIIa (CD16a) (human), 496 nM; in assay [1] it was 2700 nM; with FcγRI (CD64) (human) it was 19.7 nM; in the assay with FcRn (human) it was 1 nM. In addition, the koff in the assay with FcγRIIa (CD32a) (human) was 0.055 s⁻¹; in the assay with FcγRIIIa (CD16a) (human), 0.036 s⁻¹; with FcγRI (CD64) (human), 0.0017 s⁻¹; with FcRn (human), 0.0025 s⁻¹. Besides, the kon with FcγRIIa (CD32a) (human) came out at 260000 M⁻¹ s⁻¹; in the assay with FcγRIIIa (CD16a) (human) it was 73000 M⁻¹ s⁻¹; with FcγRI (CD64) (human), 87000 M⁻¹ s⁻¹; in the assay with FcRn (human), 2.5e+06 M⁻¹ s⁻¹. Moreover, the results for the Parvovirus-Ab (IU/mL) in assay [2] (original Hizentra formulation) and in assay [2] (re-formulated Hizentra) were 595 IU/mL and 509 IU/mL, respectively. Further, the Diphteria antitoxin (IU/mL) in assay [3] is 18.1 IU/mL.

As usually defined, the Kd is the concentration at which binding is half-saturated. Usually koff stands for the rate constant with which the complex falls apart. Low values mean slow dissociation, high ones fast dissociation. Broadly, the kon is the rate constant with which the complex forms.
